Source: publication doi:10.1101/2024.10.21.619360

What was measured:
[1] = molecular target: bovine complement factor I (bovine (B. taurus)); experiment: BLI; biotinylated bovine FI (150 nM) on streptavidin biosensors, PmSLP-1 as analyte at 0-1600 nM, Octet RED96, 30°C, PBS pH 7.4 with 0.01% Tween 20; steady-state analysis, one-site fit
[2] = molecular target: bovine complement factor I; experiment: BLI; conditions: 1600 nM PmSLP-1 mutant; biotinylated bovine FI on streptavidin sensors; 3 independent replicates; read off a plot
[3] = molecular target: bovine complement factor I; experiment: biolayer interferometry; conditions: n=3; parent: 27 ± 6
[4] = molecular target: bovine complement factor I (bovine (B. taurus)); experiment: cryo-EM structure; PmSLP-1 and FI mixed 5:1, complex isolated on Superdex Increase 200 in PBS pH 7.4, 0.25 mg/mL on gold grids, 40° tilt; dimer of the complex, protomer refined to 3.5 Å

PmSLP-1^15 (PmSLP-1^15-318), surface lipoprotein of Pasteurella multocida strain 36950 (domain or fragment)
Kd [1]: 27 nM

PmSLP-1^15 (PmSLP-1^15-318), surface lipoprotein of Pasteurella multocida strain 36950 D121A
response [2]: 0.19 AU | Kd [3]: 117 nM

PmSLP-1^15 (PmSLP-1^15-318), surface lipoprotein of Pasteurella multocida strain 36950 D124R
response [2]: 0.24 AU | Kd [3]: 53 nM

PmSLP-1^15 (PmSLP-1^15-318), surface lipoprotein of Pasteurella multocida strain 36950 D210A
response [2]: 0.14 AU | Kd [3]: 272 nM

PmSLP-1^15 (PmSLP-1^15-318), surface lipoprotein of Pasteurella multocida strain 36950 E132R
response [2]: 0.22 AU | Kd [3]: 28 nM

PmSLP-1^15 (PmSLP-1^15-318), surface lipoprotein of Pasteurella multocida strain 36950 E240A
response [2]: -0.0015 AU

PmSLP-1^15 (PmSLP-1^15-318), surface lipoprotein of Pasteurella multocida strain 36950 I133D
response [2]: 0.24 AU | Kd [3]: 43 nM

PmSLP-1^15 (PmSLP-1^15-318), surface lipoprotein of Pasteurella multocida strain 36950 K236E
response [2]: 0.24 AU | Kd [3]: 33 nM

PmSLP-1^15 (PmSLP-1^15-318), surface lipoprotein of Pasteurella multocida strain 36950 L127D
response [2]: 0.23 AU | Kd [3]: 85 nM

PmSLP-1^15 (PmSLP-1^15-318), surface lipoprotein of Pasteurella multocida strain 36950 R167A
response [2]: 0.18 AU | Kd [3]: 107 nM

PmSLP-1^95 (PmSLP-1^95-318 SERp) (domain or fragment)
Kd [1]: 39 nM

bovine complement factor I (enzyme)
stoichiometry N [4]: 2
